Measurements: article PMC6053440, “Cellular stress induces erythrocyte assembly on intravascular von Willebrand factor strings and promotes microangiopathy” (Scientific Reports, 2018)

Molecular target: T1, von Willebrand factor, human plasmatic (human, UniProt P04275 764-2813)
T1 construct: von Willebrand factor, human, from plasma; multimeric glycoprotein; Multimer of disulfide-linked subunits; The results call the VWF of the ELISA recombinant, but the methods name plasmatic VWF; also called VWF; plasmatic VWF; source: bought: Calbiochem (human plasmatic VWF)
Assay: ELISA; 96-well plates coated with 20 µg/ml AV; human plasmatic VWF added at 0.15, 0.5, 1.0 and 1.5 µg/ml; bound VWF detected colorimetrically with peroxidase-labelled anti-human VWF antibody; washing with calcium-free buffer
Conditions: both partners purified

T1 sequence (P04275 764-2813): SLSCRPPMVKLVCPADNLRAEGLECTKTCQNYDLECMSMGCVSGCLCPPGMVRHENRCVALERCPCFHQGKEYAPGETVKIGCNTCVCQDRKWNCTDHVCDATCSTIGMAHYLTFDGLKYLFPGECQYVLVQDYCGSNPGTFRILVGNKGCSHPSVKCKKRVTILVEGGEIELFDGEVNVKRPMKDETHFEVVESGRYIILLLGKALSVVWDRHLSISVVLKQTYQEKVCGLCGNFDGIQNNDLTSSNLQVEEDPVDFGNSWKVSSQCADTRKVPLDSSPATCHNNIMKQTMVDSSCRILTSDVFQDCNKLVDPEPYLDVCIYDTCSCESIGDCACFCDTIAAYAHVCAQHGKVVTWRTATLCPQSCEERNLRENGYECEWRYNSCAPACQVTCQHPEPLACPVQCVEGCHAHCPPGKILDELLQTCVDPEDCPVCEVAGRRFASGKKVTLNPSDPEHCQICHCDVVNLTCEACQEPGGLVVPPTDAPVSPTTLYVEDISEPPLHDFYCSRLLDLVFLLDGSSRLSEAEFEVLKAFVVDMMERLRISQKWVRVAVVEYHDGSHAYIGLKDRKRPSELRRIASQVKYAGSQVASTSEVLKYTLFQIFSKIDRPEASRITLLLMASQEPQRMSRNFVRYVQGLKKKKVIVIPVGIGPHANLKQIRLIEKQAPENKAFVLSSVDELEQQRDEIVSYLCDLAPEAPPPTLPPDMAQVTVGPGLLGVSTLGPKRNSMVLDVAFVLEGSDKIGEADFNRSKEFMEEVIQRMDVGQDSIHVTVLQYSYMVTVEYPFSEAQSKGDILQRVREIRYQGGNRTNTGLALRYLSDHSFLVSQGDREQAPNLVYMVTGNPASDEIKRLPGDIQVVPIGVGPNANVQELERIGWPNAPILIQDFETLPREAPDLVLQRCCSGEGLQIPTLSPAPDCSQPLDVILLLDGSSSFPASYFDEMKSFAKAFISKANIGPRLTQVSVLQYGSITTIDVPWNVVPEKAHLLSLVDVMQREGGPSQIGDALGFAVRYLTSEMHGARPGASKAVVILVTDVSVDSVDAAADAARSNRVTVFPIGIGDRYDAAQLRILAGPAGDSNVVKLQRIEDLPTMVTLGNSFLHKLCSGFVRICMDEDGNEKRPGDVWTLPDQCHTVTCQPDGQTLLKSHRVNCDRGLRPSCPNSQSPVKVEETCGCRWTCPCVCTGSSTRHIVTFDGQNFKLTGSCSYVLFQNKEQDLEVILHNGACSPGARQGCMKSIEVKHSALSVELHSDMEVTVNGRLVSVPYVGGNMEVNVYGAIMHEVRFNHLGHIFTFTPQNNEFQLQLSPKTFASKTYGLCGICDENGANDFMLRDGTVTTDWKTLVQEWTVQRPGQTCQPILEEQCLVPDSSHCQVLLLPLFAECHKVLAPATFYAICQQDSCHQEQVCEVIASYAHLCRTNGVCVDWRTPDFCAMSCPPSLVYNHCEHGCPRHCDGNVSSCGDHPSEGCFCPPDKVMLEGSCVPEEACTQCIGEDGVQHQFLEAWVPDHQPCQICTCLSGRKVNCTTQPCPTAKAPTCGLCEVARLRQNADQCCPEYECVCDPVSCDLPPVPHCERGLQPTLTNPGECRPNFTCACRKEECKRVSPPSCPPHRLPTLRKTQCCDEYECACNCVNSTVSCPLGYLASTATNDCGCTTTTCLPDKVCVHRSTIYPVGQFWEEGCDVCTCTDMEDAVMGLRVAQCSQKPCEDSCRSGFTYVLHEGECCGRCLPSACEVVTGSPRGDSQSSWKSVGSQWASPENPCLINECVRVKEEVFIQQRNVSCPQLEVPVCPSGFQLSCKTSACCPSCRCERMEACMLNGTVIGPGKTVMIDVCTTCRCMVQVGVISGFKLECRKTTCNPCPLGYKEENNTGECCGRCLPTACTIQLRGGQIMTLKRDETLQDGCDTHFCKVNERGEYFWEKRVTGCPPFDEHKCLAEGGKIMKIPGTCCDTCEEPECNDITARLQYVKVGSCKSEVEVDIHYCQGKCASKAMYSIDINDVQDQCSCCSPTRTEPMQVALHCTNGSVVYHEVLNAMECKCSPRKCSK

binding result: binds
B1: Annexin V (natural protein, human, UniProt P08758 1-320, looked up)
chain: MAQVLRGTVTDFPGFDERADAETLRKAMKGLGTDEESILTLLTSRSNAQRQEISAAFKTLFGRDLLDDLKSELTGKFEKLIVALMKPSRLYDAYELKHALKGAGTNEKVLTEIIASRTPEELRAIKQVYEEEYGSSLEDDVVGDTSGYYQRMLVVLLQANRDPDAGIDEAQVEQDAQALFQAGELKWGTDEEKFITIFGTRSVSHLRKVFDKYMTISGFQIEETIDRETSGNLEQLLLAVVKSIRSIPAYLAETLYYAMKGAGTDDHTLIRVMVSRSEIDLFNIRKEFRKNFATSLYSMIKGDTSGDYKKALLLLCGEDD
notes: Annexin V (annexin A5), human, purified from placenta; The methods of the ELISA name AV purified from human placenta (Sigma-Aldrich), but the results call it recombinant AV; In the flow adhesion experiments purified recombinant AV (BD Biosciences, 10 µg/ml) was added, and the erythrocytes' own AV was also present; also called AV; source: bought: Sigma-Aldrich, purified AV from human placenta
